US20050096290, “5'-and 3'-capped aptamers and uses therefor” (published 2005)

Columns and labels:
[1] = target: T1, VEGF165 (vascular endothelial growth factor A, 165 isoform) (Homo sapiens, UniProt P15692-4 P15692-4:27-191); experiment: competition; competitive ELISA-like plate assay against biotinylated DNA competitor on immobilized VEGF165, chemiluminescence readout; settings: tags: recombinant human VEGF165, immobilized on 96-well plate; chain copies: 2 inferred
Method: (§1) The ability of anti-VEGF aptamers to bind to human vascular endothelial growth factor (VEGF) was determined using a competitive binding ELISA-like assay. In this assay, recombinant VEGF₁₆₅ is bound to the wells of a 96-well plate (Quadra 96 Plus). Following blocking of nonspecific reactive sites on the plate, a matrix of the test aptamer and a biotinylated competitor, the DNA oligonucleotide shown below, were added.
(§2) “X” represent a biotin moiety in the above representation. Both the biotinylated competitor and the test aptamer compete for binding sites on the immobilized VEGF. Following the removal of the unbound biotinylated competitor and unbound test aptamer, the amount of biotinylated competitor remaining is detected using a chemiluminescence reaction. The entire plate was immediately read on a luminometer (Victor 2). The amount of bound biotinylated competitor is inversely related to the amount of bound test aptamer.

[2] = target: T1, VEGF165 (vascular endothelial growth …); experiment: competition; biotinylated competitor binds immobilized VEGF165 and is displaced by test aptamer; printed as SEQ ID NO:1 in text but matches listing SEQ 11; settings: tags: recombinant human VEGF165, immobilized on 96-well plate; chain copies: 2 inferred; label: two 5' biotin moieties (XX)
Method: as §1, §2

T1 sequence (P15692 other isoform, or with tags, fused parts or gaps): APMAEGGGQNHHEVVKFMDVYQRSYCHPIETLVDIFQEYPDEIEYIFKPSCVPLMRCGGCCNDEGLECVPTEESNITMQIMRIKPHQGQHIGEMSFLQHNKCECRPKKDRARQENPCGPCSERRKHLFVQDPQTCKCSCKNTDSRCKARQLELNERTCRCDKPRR

| Binder | IC50 [1] [nM] | binding result [2] |
| --- | --- | --- |
| CGGAAUCAGUGAAUGCUUAUACAUCCG (ssRNA, 2'-F on all C and U; 2'-OMe on all G and on A except A4 and A5 (ribo); 5'-5' inverted dT cap; 3'-3' inverted dT cap) [Oligonucleotide 1 (5'-5' and 3'-3' inverted dT capped anti-VEGF aptamer)] | 3.28 |  |
| CCCGTCTTCCAGACAAGAGTGCAGGG (ssDNA) [biotinylated DNA competitor oligonucleotide] |  | binds |
